Legend:
[1] = molecular target: Glutamine synthetase from Helicobacter pylori (Helicobacter pylori) (UniProt P94845); test: crystal structure; apo Hpy GS; crystals in 10% (v/v) PEG 6,000, 100 mM HEPES pH 7.0, 50 mM choline; 2.8 Å; hexamer in the asymmetric unit, dodecamer generated by two-fold symmetry
[2] = molecular target: Glutamine synthetase from Helicobacter pylori (Helicobacter pylori) (UniProt P94845); test: crystal structure; Hpy GS mixed with 5 mM ATP, 5 mM PPT, 5 mM magnesium chloride; crystals in 2.0 M sodium formate, 100 mM sodium citrate pH 5.0; 2.9 Å; twelve subunits in the asymmetric unit

Glutamine synthetase from Helicobacter pylori (from UniProt P94845 1-481) (enzyme)
stoichiometry N [1]: 12
stoichiometry N [2]: 12

Source: article PMC6076278
